The DeepSol protein solubility set

Assay: soluble on expression in E. coli; label from the status in PepcDB or PDB records

Sequence | soluble on expression in E. coli
MSKDYRSLANLSPFELKDELIKVASGKANRLMLNAGRGNPNFLATTPRRAFFRLGLFAAAESELSYSYMTVGVGGLAKLDGIEGRFERFIAEHRDQEGVKFLGKSLSYVRDQLGLDPAAFLHEMVDGILGCNYPVPPRMLTVSEQIVRQYIVREMAGGAVPPESVDLFAVEGGTAAMAYIFESLRISGLLKAGDKVAIGMPVFTPYIEIPELAQYDLKEVPIHADPDNGWQYSDAELDKLKDPDVKIFFCVNPSNPPSVKMDQRSLDRVRAIVAEQRPDLLILTDDVYGTFADEFQSLFSVCPRNTLLVYSFSKYFGATGWRLGVIAAHKDNVFDHALSQLPESAKKALDHRYRSLLPDVRSLKFIDRLVADSRVVALNHTAGLSTPQQVQMVLFSLFALMDEADAYKQALKQLIRRREATLYRELGMPPLENPNSVNYYTLIDLQNVTCRLYGEAFSQWAVQQSSTGDMLFRVADETGIVLLPGRGFGSDRPSGRASLANLNEYEYAAIGRALRRLADELYEQYKALGKEKLAAALEHHHHHH | soluble
KAFLEDMKKYAETFLEPWFKAPNKGTFQIVYKSRNNSHVNREEVIRELAGIVCTLNSENKVDLTNPQYTVVVEIIKAVCCLSVVK | soluble
SCQDLRVLNAIRDYHIGIPLTYTQYKQLTIQVLLDRLVLRRLYPLAIQICEYLRLPEVQGVSRILAHWACYKVQQKDVSDEDVARAINQKLGDTPGVSYSDIAARAYGCGRTELAIKLLEYEPRSGEQVPLLLKMKRSKLALSKAIESGDTDLVFTVLLHLKNELNRGDFFMTLRNQPMALSLYRQFCKHQELDTLKDLYNQDDNHQELGSFHIRASYAAEERIEGRVAALQTAADAFYKAKNEFAAKATEDQMRLLRIQRRLEDELGGRFLDLSLHDTVTTLILGGHNKRAEQLARDFRIPDKRLWWLKLAALADLEDWEELEKFSKSKKSPIGYLPFVEICMKQHNKHEAKKYASRVGPEQKVKALLLVGDVAQAAEVAIEHRNETELSLVLSHCTGATDGAIADKIQRARAQAQKK | soluble
MSLTNEPLASRMRPNNIDEIISQEHLVGPKGIIRRMVETKRLSSMIFYGPPGIGKTSIAKAISGSTQFKFRQLNAVTNTKKDMQLIVEEAKMSGQVILLLDEIHRLDKAKQDFLLPHLENGKIVLIGATTSNPYHAINPAIRSRAQIFELYPLDENDVRVSLDRALNDSERGLASYNPKVDEDAMAYFTTQSQGDVRSALNALELAVLSSENIDQQRHITLQDAKDCLQKGAFVSDKDGDMHYDVMSAFQKSIRGSDVNAALHYLARLIEAGDLPTIVRRLLVISFEDVGLASPSAGQRTLAAIESAERLGFPEARIPLSQAVIELCLSPKSNSGINAIDAALSDIRKGHVGQIPDHLKDGHYAGAKELGRSIGYKYPHNYENGFVTQQYLPMKLKNRIYYEPKTTSKSEQQFKAVFDHINQSQQKNKEGHHHHHH | not soluble
MGSDKIHHHHHHMWSFKSMFNTPEDPEKDAYEFYGKVQPGITTPTQKTCNFVALDLKSKDRDAIKAMFKKWTVMADRMMDGDTVGKTSNNPLMPPVDTGESIGLGASKLTITFGISKSLMKKIGLSSKIPDAFKDLPHFPNDQLIDDYSDGDIMIQACSNDSQVSFHAVHNLVRPFRDIVKVRWAQSGFISAKGKETPRNLMAFKDGTINPRKSNQLKDYVFIDDGWAKHGTYCVVRRIQIHIETWDRTALEEQEATFGRKRHSGAPLTGGKEFDEIDLKAKDSHGEYIIDKDAHTRLAKEANTSILRRAFNYVDGTDDRTGNFETGLLFIAFQKATKQFIDIQNNLGSNDKLNEYITHRGSASFLVLPGVSKGGYLGETLFD | not soluble
RGVLEGTVRIGALPLSRTRLLPSAIAAFLAQHPGITLMTNESPYESLVADMRAGNIDFIIGALRQDEDLPDLCSEALFEEDMLILLRNNHPLLRHPDPRSQLATAQWVLPRANAPARNLLDKAFVTLGLPLPQPTVETGDAAMVR | not soluble
DRPFKVGDWIRSPDRQIEGTVERIGWRMTSIRTFDKRPLYVPNSVFSNIVVENPSRMLNRRIYEVVGLRYDDADKVPEIITAVREMLKNHKDIDTRQT | not soluble
MSLTQHTRNFSFKVLTINTHKGFTAFNKRFILPELRDAVRTVGADIVCLQEVMGAHEVHPLHIENWPDTTHYEFLADTMWSDFAYGRNAVYPEGHHGNAVLSRYPIEHYENRDVSVGGSEKRGVLYCRITPPMLNRPIHVMCVHLGLRESHRQAQLTMLAGWVNALPESEPVLVAGDFNDWRQKAGPPLNAAGLEEIFTRAHGRPARTFPVSMPLLRLDRIYVKNANASSPTALPLRNWRHLSDHAPLSAEIHLEGHHHHHH | soluble
EGYEQDFAVLTAEITSKIARVPRLPPDEKKQMVANVEKQLEEARELLEQMDLEVREIPPQSRGMYSNRMRSYKQEMGKLETDFKRSRIA | soluble
YDFIDNPGFDESHSLTEMREAFLSFFEDRDHERIDPYPVAANRWRDDVLLTQASIYDFQPLVTSGTTPPPANPLCISQPCIRMQDIDNVGKTGRHTMAFEMMAHHAFNAREDIEDPEQYAYEGEVYWKNETVQYCDELFEEMGANLDEIVYIEDPWVGGGNAGPAIEVIYRGAELATLVFMSMEQDSDGEYEMKDGNRYSPMDTYIVDTGYGLERWTWMSQGTPTVYEAVYPDMIAFLKDNAGIELTDEEERIVHEAAKLAGRMDI | not soluble
MGSDKIHHHHHHMTVLHSPEPDIDPAILLEAADWLVLLQSGEATERDRMALAHWRERNPAHEAAWRRAENMLSTFDQVPPKLGHDTFSHLGNPGRRQMLRLGLLALAMPAAWITWRHSPWQEWVADLRTATGEQKLIDLNDGTHLVLNTTSAANVAFTTAERRLILLAGEILVTTGRDPSPVSRPFIVQTAHGSLRALGTRFTVRHFDDRTQVAVLEGAVEVHPAVSIQTTVLRAGEQMTFTGLDMQPVRPVEASTTLWEHGMLLARDMHLGELIAELNRYHRGVLRCDPSVASLAISGAFPVTDIPASLALLETTLPIRISSTTSWWITVQAR | not soluble
MASRRKRRKVNEESEIPCSPVVIFAHGAGAPSSSDWMIRWKEMLKKTLEAVEVVTFDYPYLADGKKRVAPKAEKLIEFHLNVVKETAAKFPGHPLILVGKSMGSRVSCMVSAVNEDVTVSAVICLGYPLKGAKGAIRDETLLEMGVPVMFVQGSKDPMCPLNKLEAVCNKMKAVTEVHVIDGGDHSFKIGKKHLETKELTQEEVEDVAMKAIAAFVSKSLAQSS | soluble
MKLTGKQTWEFENPLFVNSSGTAVGPKEKEGPLGHLFDKSYDEMHCNQKNWEMAERKLMEDAVQSALSKQNLKKEDIDIFLAGDLLNQNVTANYVARHLKIPFLCLFGACSTSMESIAISSALIDGGFAKRALAATSSHNATAERQFRYPTEYGGQKPGTATSTVTGSGAVVLSQQPGGIKITSATVGRVIDLGITDSQDMGSAMAPAAADTIKQHLEDLGRTPDDYDLILTGDLSGVGSPILKDLLKEEGINVGTKHNDCGLMIYTPDQQVFAGGSGCACSAVVTFAHIFKEIEAGRLNRVLVVATGALLSPTIIQQKESIPCIAHGVVFERAERGNALEHHHHHH | soluble
MSVGYDRLKTSSLAELRAAIRSGAYRSHTAGLGQGYLQANLAILPEAYALDFMRYCQRNPKPCPLIGVSDTGNPMMFTLGRDIDIRTDVPAYNVYRDGRLDSVSADITEDWRDDLVVFALGCSFTFEHAVMRAGVALWHVDNDRTVPMFRSNIETVPAGPFSGKMVVSMRAVPEDRVAEVAEISRAYPLAHGAPVYWGDPAGLGIADIMSPDWGDPAPLGPGEVPMFWACGVTPQVAIEAARLPLCITHKPGHMLITDVAEDAEVPVVETAQDKRLEHHHHHH | soluble
MSLKISEVATPNFLLDLDQLEKNIDKIQQICTNNNKQLWPMLKTHKSTYIARLQKNAGASGFLVGTLDEGEALIKAGFEDIMLAYPYMGEVNINRIVTMASKINLICATDNIECAKAYSEAFSKSKIECKLLIIVDCGLHRFGVEPEKVVELATEISKLENIKIVGISSHPGQVYGCSSPEGVPDVCVQEDSSMEKAYKALTDNGFNIEIVASGSTPTVESEAACKTITAVRPGNYVYYDAIQIGLGCATEDMCALTVVCTVISKNSSGYYLIDCGSKCLGLDKGAHGNSSIVGYGRVCGHPELTIDSLSEEVGKIKVNGETDIKIGDRIRIIPNHSCSTANLTSNLLGFRGDTIEKVIEVDIRENSEGHHHHHH | soluble
MSLKKQPGFTQDYLLSKATTLPDKTRLERAVEPLCARHPGECGILALDNSLDAFAARYRLTEMAARTLDVQYYIWEDDMSGRLLFSVLLSAAKRGVHVRLLLDDNNTPGLDDTLRLLDSHPNIEVRLFNPFSFRTLRALGYLTDFARLNRRMHNKSYTADGVVTLVGGRNIGDAYFGAGEEPLFSDLDVMAIGPVVNDVANDFERYWRCSSVSTLQQVLSLSEQELTQRIELPESWYNDEITRRYLHKLETSQFMADLDCGTLPLIWAKTRLLSDDPSKGEGKAQRHSLLPQRLFDVMGSPTERIDIISAYFVPTRAGVAQLLNLVRKGVKIAILTNSLAANDVAVVHAGYARWRKKLLRYGVELYELKPTREHETAVHDRGLTGNSGSSLHAKTFSIDGSKVFIGSLNFDPRSTLLNTEMGFVIESETLATLIHKRFTQSQRDAAWQLRLDRWGRINWIDRQQEEEKVLKKEPATRFWQRVLVRLAAILPVEWLLEGHHHHHH | soluble
MPVLNLNDPQAVERYEEFMRQSPYGQVTQDLGWAKVKNNWEPVDVYLEDDQGAIIAAMSMLLGDTPTDKKFAYASKGPVMDVTDVDLLDRLVDEAVKALDGRAYVLRFDPEVAYSDEFNTTLQDHGYVTRNRNVADAGMHATIQPRLNMVLDLTKFPDAKTTLDLYPSKTKSKIKRPFRDGVEVHSGNSATELDEFFKTYTTMAERHGITHRPIEYFQRMQAAFDADTMRIFVAEREGKLLSTGIALKYGRKIWYMYAGSMDGNTYYAPYAVQSEMIQWALDTNTDLYDLGGIESESTDDSLYVFKHVFVKDAPREYIGEIDKVLDPEVYAELVKD | soluble
MRSELCCCRAVKRAAPEESIEEDDSYEDSDLEEGGSSYDEGTVDSESSAEDQEDKDVPVSEKKKRKLPSDVTEGKTVFIRNLSFDSEEEALGEVLQQFGDLKYVRVVLHPDTEHSKGCAFAQFMTQEAAQKCLAAASLEAEGGGLKLDGRQLKVDLAVTRDEAAKLQTKKVKKPTGTRNLYLAREGLIRAGTKAAEGVSAADMAKRERFELLKHQELKNQNIFVSQTRLCLHNLPKAVDDKQLRKLLLEATRGEKGVRIKECRVMRDLKGVHGKMKGQSLGYAFAEFQKHEHALRALRHFNNNPEIFGSQKRPIVEFSLEDRRKLKVKELRIQRSLQKMESKPVTSKPQKEQKEVGKDKQQKAVQSATQDQSKAPGEQKGKAGSTSWTGFQTKAEVEQVELPDGKKRRKVLALPSHRGPKIRLRDKGKVKSLPSRKPKPQMGQRKQKKQQLASSVQAPKRKAKENKAEARFNQLVEQYKQKLLGPSKGAPLMKRSKWFDS | soluble
MIKTAQSVGELTRAIKNELESLFPFVRVKGELSNVKQHSSGHVYLTLKDSEAQIPAVIWKSVRARSPLELRDGLEVIAEGRLEVWPPAGRYQLICTALFETGEGEQRLALERLIAKLAKAGWFDAERKKPIPRIPRRIGMITSPTGAVIRDMSDVFARRFPAAELLLYPVQVQGERAVESIVRALRYFNDPPKPEHKPDVLIVARGGGSSEDLQAFNDEAVAEAIYRSAIPVISAVGHETDLSVADMVADLRAGTPSIAAERAVPDREELLRLIDNLVNRQSILMEGLISGAQLQVDSITSSYAFNRPVQMLGQFEERLALMEKEMKRAIAEKVRDREQQLTAAADRLAMLDINRTLKRGFALVTQDDRYVTSAKSLEADAKIGLTFHDGQREARVTE | not soluble
SASFVGTPLPESENISLYQSRVTVAELEMLASRFVGRTRVKVAFQAYWSQQREELLPNQQAPSSLIRHTERVLAGVFGASSAKLVLTSALQGRNMQLEEVATIVDEAS | not soluble
